This assay addresses GST-Bag-1L-(202-345) (human, UniProt P08515 1-218 = GST; Q99933 202-345). Briefly: GST pull-down from lysates of Bag-1L-transfected cells, immunoblot with Bag-1L specific antibody. (A western blot detects proteins with antibodies after separation by electrophoresis.)

B1: Bag-1L (in lysates from Bag-1L-transfected cells) (other)
chain: MAQRGGARRPRGDRERLGSRLRALRPGREPRQSEPPAQRGPPPSGRPPARSTASGHDRPTRGAAAGARRPRMKKKTRRRSTRSEELTRSEELTLSEEATWSEEATQSEEATQGEEMNRSQEVTRDEESTRSEEVTREEMAAAGLTVTVTHSNEKHDLHVTSQQGSSEPVVQDLAQVVEEVIGVPQSFQKLIFKGKSLKEMETPLSALGIQDGCRVMLIGKKNSPQEEVELKKLKHLEKSVEKIADQLEELNKELTGIQQGFLPKDLQAEALCKLDRRVKATIEQFMKILEEIDTLILPENFKDSRLKRKGLVKKVQAFLAECDTVEQNICQETERLQSTNFALAE
notes: Untagged Bag-1L as the soluble partner in the test for dimerization; also called human Bag-1L; p50
Turning to B1, the binding result was “no binding”.
